Results from patent publication US20090017017A1 (SYMPHOGEN A S, published 2009).
Residue numbers refer to the chain shown, from its start.

T1: Rhesus D antigen (human, UniProt Q02161 2-417)
T1 construct: whole, on cells; Presented on RhD(+) erythrocytes; also called RhD; RhD antigen
T1 sequence (looked up): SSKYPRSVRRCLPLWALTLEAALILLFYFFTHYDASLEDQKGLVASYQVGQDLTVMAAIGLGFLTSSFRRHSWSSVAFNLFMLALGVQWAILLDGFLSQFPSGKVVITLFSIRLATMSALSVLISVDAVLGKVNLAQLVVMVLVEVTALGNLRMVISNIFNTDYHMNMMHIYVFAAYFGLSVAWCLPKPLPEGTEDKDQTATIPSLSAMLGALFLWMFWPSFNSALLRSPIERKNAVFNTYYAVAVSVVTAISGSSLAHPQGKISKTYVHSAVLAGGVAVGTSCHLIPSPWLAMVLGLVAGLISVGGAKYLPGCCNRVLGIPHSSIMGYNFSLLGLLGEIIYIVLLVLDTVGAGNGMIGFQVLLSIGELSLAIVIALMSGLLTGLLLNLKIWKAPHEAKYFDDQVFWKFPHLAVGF

B1: RhD323.229B07 (Fab, V domains shown)
VH: QVQLVESGGGVVQPGRSLRLSCAASGFTFSSYGMHWVRQAPGKGLEWVAVIWYDGSNKYYADSVKGRFTISRDNSKNTLYLQMNSLRAEDTAVYYCARDWVTRSSNWYRNYYYYGMDVWGQGTTVTVSS
VL: DIQMTQSPSSLSASVGDRVTITCRASQSISSYLNWYQQKPGKAPKLLIYAASTLQSGVPSRFSGSGSGTDFTLTISSLQPEDFATYYCQQYYRTPTWTFGQGTKVEIKR
notes: Tested as Fab in E. coli periplasmic extract (VH on human gamma 1 CH1, vector Em351)
B2: RhD189.181E07 (Fab, V domains shown)
VH: B1 VH with W100M, R103M, S104V, S105R, N106G, W107A, Q121K
VL: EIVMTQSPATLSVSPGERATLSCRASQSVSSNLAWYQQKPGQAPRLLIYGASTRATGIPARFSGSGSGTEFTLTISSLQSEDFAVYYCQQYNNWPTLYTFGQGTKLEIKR
notes: as for B1
B3: RhD162.119G12 (Fab, V domains shown)
VH: QVQLVESGGGLVKPGGSLRLSCAASGFGFSAYSMNWVRQAPGKGLEWVSSITSTTTYYADSVKGRFSISRDNAKSTLYLRMNSLRAEDTAVYYCVREIAFRGSTYSRWSYYFDFWGQGTLVTVSS
VL: DIQLTQSPSSVSASVGDSVTITCRASQAVSGWVAWYQQKPGKAPKLLIFGLSNLEDGVPSRFSGSGSATDFTLTITGLQPEDLATYYCLQANRFPLSFGGGTRVEIKR
notes: as for B1
B4: RhD163.119A02 (Fab, V domains shown)
VH: QVQLQESGPGLVKPSETLSLTCTVSGGSISSYYWSWVRQPPGKGLEWIGYIYYSGSTNYNPSLKSRVTIALDTSKNQFSLKLRSVTAADTAVYFCTRDWRQYGSAIRGSRYYYGMDVWGQGTTVTVSS
VL: EIVLTQSPGTLSLSPGERATLSCRASQNPRRNFLAWYQQKPGQAPRLLIYAASTRATGIPDRFSGSGSGTDFTLTIDRLEPEDSAVYYCQVYGSSPLYTFGQGTKVEMKR
notes: as for B1
B5: RhD324.231F07 (Fab, V domains shown)
VH: EVQLVESGGGLVQPGRSLRLSCVASGFTFSSYWMHWVRQVPGKGLVWVSRINVDGKSTSYADSVKGRFTISRDNAKNTLYLQMNSLRAEDTAVYYCARDPRRFLEWARYGMDVWGRGTTVTVSS
VL: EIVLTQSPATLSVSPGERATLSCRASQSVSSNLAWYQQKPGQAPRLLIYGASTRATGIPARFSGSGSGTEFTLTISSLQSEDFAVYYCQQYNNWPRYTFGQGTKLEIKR
notes: as for B1

biological target: T1, Rhesus D antigen; experiment: Fab screening on RBC (agglutination, FACS)
Method: After each round of panning single colonies were picked for analysis of their binding properties to red blood cells in agglutination assays. Briefly, single colonies were inoculated into 2×YT/100 μg/mL carbenicillin/1% glucose and shaken overnight at 37° C. The next day, DeepWell plates were inoculated using 900 μl 2×YT/100 μg/mL carbenicillin/0.1% glucose and 10 μl overnight culture. The plates were shaken for two hours at 37° C., before Fab induction was performed with addition of 300 μl 2×YT/100 μg/mL carbenicillin/0.25 mM IPTG per well. The plate was shaken overnight at 30° C. The following day, the bacteria were pelleted by centrifugation (3200×g, 4° C., 10 minutes), and re-suspended in 100 μl of 0.8 M NaCl, 0.2×PBS, 8 mM EDTA, and incubated for 15 minutes on ice in order to perform a periplasmic extraction of the Fab fragments. The plate was transferred to −20° C. and finally the suspension was thawed and centrifugation was performed for 10 minutes at 4° C. and 3200×g. The periplasmic extract was used in ELISA assays for analysis of Fab content and in agglutination assays to evaluate the binding potential of the individual Fab fragments.
The agglutination assay was performed as follows: RhD(−) and RhD(+) RBC were mixed in a 1:1 ratio, and washed 3 times in PBS. After the final wash, the cell mix was re-suspended in 1% BSA in PBS at a density of 10% cells, 50 μl was added to each well of a 96-plate. Periplasmic extracts were added to the wells. As a positive control Rhesogamma P immunoglobulin (Aventis) was used according to the manufacturer's instructions. The plates were incubated for one hour at room temperature with gentle shaking. The cells were washed three times with PBS, before the secondary antibody was added (goat anti-human Fab/FITC conjugate, Sigma F5512) in a 1:100 dilution. The plates were left for agglutination for one hour at room temperature without shaking. Fab fragments positive in the agglutination assay was determined by visual inspection, and recorded by taking a picture. Quantization of the binding activity of the Fab fragments was performed by FACS analysis of the agglutination samples.

Row | binding result | Binder
1 | binds | B1
2 | binds | B2
3 | binds | B3
4 | binds | B4
5 | binds | B5
